From US20220213181A1 (Novartis, published 2022)

T1: Human ANGPTL4(26-406)-FLAG-His6-Avi (human, UniProt Q9BY76 24-406, biotin on the C-terminal Avi tag (BirA) where the protein is immobilised)
T1 sequence: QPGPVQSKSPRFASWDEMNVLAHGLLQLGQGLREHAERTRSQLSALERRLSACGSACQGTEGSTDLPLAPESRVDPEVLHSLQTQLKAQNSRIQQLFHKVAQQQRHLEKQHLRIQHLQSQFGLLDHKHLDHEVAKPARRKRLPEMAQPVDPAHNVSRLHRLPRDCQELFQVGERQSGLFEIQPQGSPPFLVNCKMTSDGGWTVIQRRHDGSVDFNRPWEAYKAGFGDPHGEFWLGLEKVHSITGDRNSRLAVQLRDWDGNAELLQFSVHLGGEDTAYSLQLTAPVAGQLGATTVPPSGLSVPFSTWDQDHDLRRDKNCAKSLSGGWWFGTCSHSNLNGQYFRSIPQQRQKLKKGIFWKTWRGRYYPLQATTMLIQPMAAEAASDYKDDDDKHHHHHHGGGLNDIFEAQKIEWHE

T2: P10 (human)
T2 construct: linear 15-mer from the N-terminal coiled coil domain of human ANGPTL4
T2 peptide: QGLREHAERTRSQLS

T3: P33 (human)
T3 construct: linear 15-mer from the N-terminal coiled coil domain of human ANGPTL4
T3 peptide: KVAQQQRHLEKQHLR

T4: Cynomolgus monkey ANGPTL4(26-406)-FLAG-His6-Avi (cynomolgus monkey, biotin on the C-terminal Avi tag (BirA) where the protein is immobilised)
T4 construct: also called Cyno ANGPTL4 (26-406)
T4 chain: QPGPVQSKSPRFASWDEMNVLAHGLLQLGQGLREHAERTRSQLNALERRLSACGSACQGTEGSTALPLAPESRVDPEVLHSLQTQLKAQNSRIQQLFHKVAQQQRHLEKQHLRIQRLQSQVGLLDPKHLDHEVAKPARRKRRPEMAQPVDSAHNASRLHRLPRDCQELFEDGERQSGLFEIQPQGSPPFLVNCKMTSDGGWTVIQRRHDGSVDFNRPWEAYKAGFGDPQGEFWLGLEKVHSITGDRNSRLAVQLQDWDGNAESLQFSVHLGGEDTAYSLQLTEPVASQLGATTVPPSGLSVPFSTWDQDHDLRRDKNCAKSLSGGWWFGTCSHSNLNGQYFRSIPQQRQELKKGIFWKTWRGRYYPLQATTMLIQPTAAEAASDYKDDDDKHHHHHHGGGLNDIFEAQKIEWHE


Experiments:
[1] = target: T1, Human ANGPTL4(26-406)-FLAG-His6-Avi; assay: cell-based or functional assay
P10 = target: T2, P10; assay: linear peptide array on glass (JPT)
Method: (§1) The ability of selected antibodies of invention, namely NEG276 and NEG318, to bind to linear 15-amino-acid peptides derived from the N-terminal coiled coil domain of human ANGPTL4 was tested. The peptides were immobilized on a glass surface, and the ability of NEG276 and NEG318 to bind to the immobilized peptides was evaluated using experimental methods optimized for linear peptide epitope mapping at JPT Peptide Technologies (Berlin, Germany).

P33 = target: T3, P33; assay: linear peptide array on glass (JPT)
Method: as §1

[2] = target: T4, Cynomolgus monkey …; assay: SET (solution equilibrium titration), MSD detection, IgG
Method: SET assays were performed as follows. In a 96-well polypropylene plate, a constant concentration of ANGPTL4 antibody (10 pM) was mixed with different concentrations of non-biotinylated human, cyno, mouse, or rat full-length ANPGLT4 protein, or human ANGPTL4 N-terminal domain protein (5-fold serial dilution ranging from 0.01 pM to 100 nM) in SET buffer (PBS, pH 7.4 without CaCl₂) or MgCl₂, 0.5% w/v bovine serum albumin (fatty acid free) and 0.02% v/v Tween-20). The final reaction volume was 80 μL. The plate was sealed using an adhesive film and incubated at 22° C. for 14 hours with constant shaking (300 rpm). During the same period of time, a 384-well streptavidin-coated Meso Scale Discovery (MSD) plate was blocked by incubating the plate with 50 μL blocking buffer (PBS, pH 7.4, 5% w/v bovine serum albumin) per well at 4° C. The blocked MSD plate was washed 3 times with wash buffer (PBS, pH 7.4 and 0.05% v/v Tween-20) using a plate washer (BioTek). Biotinylated ANGPTL4 (full-length human, cyno, mouse, or rat ANGPTL4, or human ANGPTL4 N-terminal domain) protein (1 nM, 15 μL per well) was immobilized on the surface of the streptavidin-coated MSD plate by incubation at 22° C. for one hour with constant shaking (600 rpm). The plate was then washed 3 times as described earlier.
The equilibrium binding reactions (15 μL per well) were applied to the MSD plate with immobilized ANGPTL4 and incubated for 20 min at 22° C. The unbound material was removed by washing the plate 3 times with wash buffer, and the captured antibody was detected by adding 15 μL per well of a 1:500 dilution of Sulfo-tagged goat anti-human IgG (Meso Scale Discovery). The plate was then incubated for one hour with constant shaking (600 rpm). The plate was washed 3 times, and then 15 μL/well of 1× MSD read buffer T was added and the plate was developed using a Sector Imager 6000 (Meso Scale Discovery). The data were transferred to Microsoft Excel for analysis and plotted using GraphPad Prism v6. The KD values were determined by fitting the data to the following equation: […]
where Bₘₐₓ is the signal when no ANGPTL4 protein is present in solution, CAb is the constant concentration of ANGPTL4 antibody in solution, CAg is the concentration of ANGPTL4 in solution, and KD is the equilibrium dissociation constant.

[3] = target: T1, Human ANGPTL4(26-406)-FLAG-His6-Avi; assay: Octet (ForteBio) kinetics, biotinylated antigen on streptavidin sensor, IgG in solution
Method: Dissociation constants (KD) were determined for selected antibodies of the invention by using an Octet (ForteBio) kinetic binding assay. ForteBio 10× Kinetics Buffer (ForteBio, catalog number 18-5032) was diluted 10-fold with DPBS (Life Technologies, catalog number 14190-136), and the resulting solution was added (0.2 ml per well) to a 96-well plate (Greiner, catalog number 65520). Streptavidin sensors (ForteBio, catalog number 18-5020) were immersed in the solution and equilibrated for at least 10 min at room temperature. In a second 96-well plate (Greiner, catalog number 65520), sensors were washed in 1× Kinetics buffer, and then immersed in 200 ul of 25 nM biotinylated human ANGPTL4 or a biotinylated reference protein (for background subtraction) for 1000 sec at […] room temperature. […] The sensors were then transferred to a well containing 200 μl 1× Kinetics buffer, and antibody dissociation was monitored for 1200 seconds. Background-corrected association and dissociation curves were globally fitted by Octet Software (ForteBio) to generate association (kₐ) and dissociation (kd) rate constants, which in turn were used to calculate equilibrium dissociation constants (KD).

Binder | EC50 of the antibody-mediated increase in lipoprotein lipase enzyme activity (reversal of LPL inhibition by ANGPTL4) [1] [pM] | binding result (P10) | binding result (P33) | Kd [2] [pM] | Kd [3] [pM] | koff [3] [s⁻¹] | kon [3] [M⁻¹ s⁻¹]
NEG276 (antibody, human IgG1, kappa, humanized, hIgG1/kappa, parental antibody 19C16) heavy: not shown light: EIVMTQSPATLSVSPGERATLSCKASQDIGSNLNWLQQKPGQAPRRLIYAVSNRGPGIPARFSGSRSGSEYTLTISSLQSEDFAVYYCLQYASSPWTFGQGTKVEIKRTVAAPSVFIFPPSDEQLKSGTASVVCLLNNFYPREAKVQWKVDNALQSGNSQESVTEQDSKDSTYSLSSTLTLSKADYEKHKVYACEVTHQGLSSPVTKSFNRGEC | 600 | no binding | no binding | 14 | 23 | 8e-06 | 340000
NEG315 (antibody, human IgG1, kappa, V domains shown, humanized, hIgG1/kappa, parental antibody 37P1) VH: QVQLVQSGAEVKKPGASVKVSCKASGYTFTNYWITWVRQAPGQGLEWMGDFYPGGGNTNYNAKLQGRVTLTVDTSTSTAYMELRSLRSDDTAVYYCARSPPQVAPFDYWGQGTLVTVSS VL: DIQMTQSPSSLSASVGDRVTITCQASEYIYNWLGWYQQKPGKAPKLLISGASGLETGVPSRFSGSGSGKDYTFTISSLQPEDIATYYCQQYWSTPWTFGQGTKLEIKR | 3000 |  |  | 21 | 29 | 7.9e-06 | 280000
NEG313 (antibody, human IgG1, kappa, V domains shown, humanized, hIgG1/kappa, parental antibody 37P1) VH: QVQLVQSGAEVKKPGASVKVSCKASGYTFNNYWITWVRQAPGQGLEWMGDFYPGGGSTNYNAKLQGRVTLTVDTSTSTAYMELRSLRSDDTAVYYCARSPPQVAPFDYWGQGTLVTVSS VL: DIQMTQSPSSLSASVGDRVTITCQASDYIYHWLGWYQQKPGKAPKLLISGASGLETGVPSRFSGSGSGKDYTFTISSLQPEDIATYYCQQYWSTPWTFGQGTKLEIKR | 3000 |  |  | 15 | 40 | 1.1e-05 | 280000
NEG318 (antibody, human IgG1, kappa, V domains shown, humanized, hIgG1/kappa, parental antibody 14P18) VH: QVQLVQSGAEVKKPGASVKVSCKASGYTFTSFWITWVRQAPGQGLEWMGDIYPGGATTNYNEKLQGRVTLTVDTSTSTAYMELRSLRSDDTAVYYCARSPPQVGPFDYWGQGTLVTVSS VL: DIQMTQSPSSLSASVGDRVTITCQASDYIYHWLAWYQQKPGKAPKLLISGASSLETGVPSRFSGSGSGKDYTFTISSLQPEDIATYYCQQYWSIPWTFGQGTKLEIKR | 1400 | no binding | no binding | 17 | 45 | 1.2e-05 | 270000
NEG319 (antibody, human IgG1, kappa, V domains shown, humanized, hIgG1/kappa, parental antibody 14P18) VH: QVQLVQSGAEVKKPGASVKVSCKASGYTFTSFWITWVRQAPGQGLEWMGDIYPGGANTNYNEKLQGRVTLTVDTSTSTAYMELRSLRSDDTAVYYCARSPPQVGPFDYWGQGTLVTVSS VL: DIQMTQSPSSLSASVGDRVTITCQASEYIINWLAWYQQKPGKAPKLLISGATGLETGVPSRFSGSGSGKDYTFTISSLQPEDIATYYCQQYWSIPWTFGQGTKLEIKR | 500 |  |  | 8 | 36 | 1e-05 | 280000

Other lines, results leading:

EC50 of the antibody-mediated increase in lipoprotein lipase enzyme activity (reversal of LPL inhibition by ANGPTL4) [1] [pM] | binding result (P10) | binding result (P33) | Kd [2] [pM] | Kd [3] [pM] | koff [3] [s⁻¹] | kon [3] [M⁻¹ s⁻¹] | Binder
700 |  |  | 20 |  |  | 300000 | NEG278 (antibody, human IgG1, kappa, V domains shown, humanized, hIgG1/kappa, parental antibody 19C16) VH: QVQLVQSGAEVKKPGASVKVSCKASAYTFTSSWMQWVRQAPGQGLEWMGEIDPSDNYANYNQKFQGRVTLTVDTSTSTAYMELSSLRSEDTAVYYCASGSYFSNFFDYWGQGTLVTVSS VL: EIVMTQSPATLSVSPGERATLSCKASQDIGSNLNWLQQKPGQAPRRLIYAASVREPGIPARFSGSRSGSEYTLTISSLQSEDFAVYYCLQYASSPWTFGQGTKVEIKR
700 |  |  | 7 |  |  |  | NEG276-LALA (antibody, human IgG1, kappa, L234A L235A) heavy: not shown light: EIVMTQSPATLSVSPGERATLSCKASQDIGSNLNWLQQKPGQAPRRLIYAVSNRGPGIPARFSGSRSGSEYTLTISSLQSEDFAVYYCLQYASSPWTFGQGTKVEIKRTVAAPSVFIFPPSDEQLKSGTASVVCLLNNFYPREAKVQWKVDNALQSGNSQESVTEQDSKDSTYSLSSTLTLSKADYEKHKVYACEVTHQGLSSPVTKSFNRGEC
1600 |  |  | 22 | 25 | 1.1e-05 | 220000 | NEG310 (antibody, human IgG1, kappa, V domains shown, humanized, hIgG1/kappa, parental antibody 17B1) VH: QVQLVQSGAEVKKPGASVKVSCKASGYTFTSYTMHWVRQAPGQGLEWMGYINPSSGYTKYNQKFQGRVTMTADKSTSTAYMELSSLRSEDTAVYYCAEGWLLLAMDYWGQGTLVTVSS VL: EAVVTQSPATLSLSPGERATLSCRSSTGAVTTSNYAIWVQEKPGQAPRGLIGGTNNRAPGIPARFSGSLSGDDATLTISSLQPEDFAVYFCALWYSDHWVFGQGTKVEIKR
